Results published in patent publication EP4745156A1 (Beijing Vjtbio Co., Ltd., dated 2026).

Biological target: T1, His-tagged canine IL-31 (interleukin 31) recombinant protein (canine)
T1 construct: Expressed in HEK293 cells, purified on a Ni column; unlabelled analyte in BLI; also called canine IL-31 recombinant protein; biotin-labeled canine IL-31 recombinant protein
Test: BLI (Gator), biotinylated antibody on streptavidin probe, canine IL-31 as analyte

B1: Lokivetmab (antibody, V domains shown)
VH: EVQLVESGGDLVKPGGSLRLSCVASGFTFSNYGMSWVRQAPGKGLQWVATISYGGSYTYYPDNIKGRFTISRDNAKNTLYLQMNSLRAEDTAMYYCVRGYGYDTMDYWGQGTLVTVSS
VL: EIVMTQSPASLSLSQEEKVTITCKASQSVSFAGTGLMHWYQQKPGQAPKLLIYRASNLEAGVPSRFSGSGSGTDFSFTISSLEPEDVAVYYCQQSREYPWTFGQGTKLEIKR
- Kd: 19.3 nM
- koff: 0.00203 s⁻¹
- kon: 105000 M⁻¹ s⁻¹
